In US20250333523A1 (Alector, published 2025):

T1: Avi/His-HuIL18BPa (recombinant human IL-18BP isoform A with Avi and poly-His tags) (human, biotinylated with BirA on the Avi tag in some assays)
T1 chain: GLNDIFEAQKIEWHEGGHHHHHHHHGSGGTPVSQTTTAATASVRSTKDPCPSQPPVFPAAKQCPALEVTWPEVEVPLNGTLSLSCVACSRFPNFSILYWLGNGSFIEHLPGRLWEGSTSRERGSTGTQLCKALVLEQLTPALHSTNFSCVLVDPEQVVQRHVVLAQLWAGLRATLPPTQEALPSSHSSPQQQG

T2: Avi/HisMsIL18BPd (recombinant mouse IL-18BP with Avi and poly-His tags) (mouse, biotinylated with BirA on the Avi tag in some assays)
T2 chain: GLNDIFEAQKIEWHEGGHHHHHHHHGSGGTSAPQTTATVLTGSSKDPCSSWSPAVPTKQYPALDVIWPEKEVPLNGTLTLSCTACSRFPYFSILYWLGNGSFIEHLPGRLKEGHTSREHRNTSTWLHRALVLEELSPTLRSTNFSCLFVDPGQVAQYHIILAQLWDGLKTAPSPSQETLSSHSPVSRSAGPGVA

T3: His/Avi-CynoIL18BP (recombinant cynomolgus IL-18BP with His and Avi tags) (cynomolgus monkey)
T3 construct: also called cynomolgus IL-18BP-Avi-His
T3 chain: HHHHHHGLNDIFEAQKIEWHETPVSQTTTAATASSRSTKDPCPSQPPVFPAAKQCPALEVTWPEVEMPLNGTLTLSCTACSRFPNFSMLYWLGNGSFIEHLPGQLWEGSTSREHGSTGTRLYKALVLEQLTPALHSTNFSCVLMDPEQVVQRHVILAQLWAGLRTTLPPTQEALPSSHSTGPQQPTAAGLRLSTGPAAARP


Tests used:
[1] = target: T1, Avi/His-HuIL18BPa (recombinant human …); assay: cell-based or functional assay
[2] = target: T2, Avi/HisMsIL18BPd (recombinant mouse …); assay: cell-based or functional assay
[3] = target: T1, Avi/His-HuIL18BPa (recombinant human …); assay: SPR Biacore T200, IgG captured on Protein A/G
[4] = target: T3, His/Avi-CynoIL18BP (recombinant …); assay: SPR Biacore T200, IgG captured on Protein A/G

Binder	EC50 of IFNγ release, human PBMCs [1]	EC50 of IFNγ release, mouse splenocytes [2]	Kd [3]	koff [3]	kon [3]	Kd [4]	koff [4]	kon [4]
anti-IL-18BP antibody variant BP-04.32 (antibody, V domains shown) VH: QVQLVQSGAEVKKPGASVKVSCKASGYTFTDYDMHWVRQAPGQGLEWMGIYSTYYGDVSYAQKFQGRVTMTRDKSTSTVYMELSSLRSEDTAVYYCARSGTYYYGTRESHALDYWGQGTLVTVSS VL: DIQMTQSPSSVSASVGDRVTITCRASDNVYSNLAWYQQKPGKAPKLLIYGAISLADGVPSRFSGSGSGTDFTLTISSLQPEDFATYYCQHFWGNPYTFGQGTKLEIK	0.838 nM	9.61 nM	20 nM	0.0074 s⁻¹	370000 M⁻¹ s⁻¹	59 nM	0.02 s⁻¹	340000 M⁻¹ s⁻¹
anti-IL-18BP antibody variant BP-04.20 (antibody, V domains shown) VH: QVQLVQSGAEVKKPGASVKVSCKASGYTFTDYDMHWVRQAPGQGLEWMGIISTYYGVVSYAQKFQGRVTMTRDKSTSTVYMELSSLRSEDTAVYYCARSGTYYYGTRESHPLDYWGQGTLVTVSS VL: DIQMTQSPSSVSASVGDRVTITCRASDNVYSNLAWYQQKPGKAPKLLIYGAISLADGVPSRFSGSGSGTDFTLTISSLQPEDFATYYCQHFWGNPYTFGQGTKLEIK	4.06 nM	28.7 nM	–	–	–	–	–	–
anti-IL-18BP antibody variant BP-04.23 (antibody, V domains shown) VH: QVQLVQSGAEVKKPGASVKVSCKASGYTFTDYDMHWVRQAPGQGLEWMGIYSTYYGDVSYAQKFQGRVTMTRDKSTSTVYMELSSLRSEDTAVYYCARSGTYYYGTRESHAFDYWGQGTLVTVSS VL: DIQMTQSPSSVSASVGDRVTITCRASDNVYSNLAWYQQKPGKAPKLLIYGAISLADGVPSRFSGSGSGTDFTLTISSLQPEDFATYYCQHFWGNPYTFGQGTKLEIK	146 nM	3.5 nM	–	–	–	–	–	–
anti-IL-18BP antibody variant BP-04.27 (antibody, V domains shown) VH: QVQLVQSGAEVKKPGASVKVSCKASGYTFTDYDMHWVRQAPGQGLEWMGIISTYYGDVSYAQKFQGRVTMTRDKSTSTVYMELSSLRSEDTAVYYCARSGTYYYGTRESHAFDYWGQGTLVTVSS VL: DIQMTQSPSSVSASVGDRVTITCRASDNVYSNLAWYQQKPGKAPKLLIYGAISLADGVPSRFSGSGSGTDFTLTISSLQPEDFATYYCQHFWGNPYTFGQGTKLEIK	1.28 nM	39.6 nM	–	–	–	–	–	–
anti-IL-18BP antibody variant BP-04.21 (antibody, V domains shown) VH: QVQLVQSGAEVKKPGASVKVSCKASGYTFTDYDMHWVRQAPGQGLEWMGIISTYYGVVSYAQKFQGRVTMTRDKSTSTVYMELSSLRSEDTAVYYCARSGTYNYGTRESHALDYWGQGTLVTVSS VL: DIQMTQSPSSVSASVGDRVTITCRASDNVYSNLAWYQQKPGKAPKLLIYGAISLADGVPSRFSGSGSGTDFTLTISSLQPEDFATYYCQHFWGNPYTFGQGTKLEIK	4.48 nM	595 nM	–	–	–	–	–	–
anti-IL-18BP antibody variant BP-04.19 (antibody, V domains shown) VH: QVQLVQSGAEVKKPGASVKVSCKASGYTFTDYDMHWVRQAPGQGLEWMGIISTYYGVVSYAQKFQGRVTMTRDKSTSTVYMELSSLRSEDTAVYYCARSGTYYYGTRESHAFDYWGQGTLVTVSS VL: DIQMTQSPSSVSASVGDRVTITCRASDNVYSNLAWYQQKPGKAPKLLIYGAISLADGVPSRFSGSGSGTDFTLTISSLQPEDFATYYCQHFWGNPYTFGQGTKLEIK	3.1 nM	21.6 nM	–	–	–	–	–	–
anti-IL-18BP antibody variant BP-04.22 (antibody, V domains shown) VH: QVQLVQSGAEVKKPGASVKVSCKASGYTFTDYDMHWVRQAPGQGLEWMGIISTYYGVVSYAQKKQGRVTMTRDKSTSTVYMELSSLRSEDTAVYYCARSGTYYYGTRESHALDYWGQGTLVTVSS VL: DIQMTQSPSSVSASVGDRVTITCRASDNVYSNLAWYQQKPGKAPKLLIYGAISLADGVPSRFSGSGSGTDFTLTISSLQPEDFATYYCQHFWGNPYTFGQGTKLEIK	7.71 nM	368 nM	–	–	–	–	–	–
anti-IL-18BP antibody variant BP-04.02 (antibody, V domains shown) VH: QVQLVQSGAEVKKPGASVKVSCKASGYTFTDYDLHWVRQAPGQGLEWMGIISTYYGDVSYAQKFQGRVTMTRDKSTSTVYMELSSLRSEDTAVYYCARSGMYYYGTRESHALDYWGQGTLVTVSS VL: DIQMTQSPSSVSASVGDRVTITCRASDNVYSNLAWYQQKPGKAPKLLIYGAISLADGVPSRFSGSGSGTDFTLTISSLQPEDFATYYCQHFWGNPYTFGQGTKLEIK	41.5 nM	12.3 nM	–	–	–	–	–	–
anti-IL-18BP antibody variant BP-04.26 (antibody, V domains shown) VH: QVQLVQSGAEVKKPGASVKVSCKASGYTFTDYDMHWVRQAPGQGLEWMGIYSTYYGVVSYAQKFQGRVTMTRDKSTSTVYMELSSLRSEDTAVYYCARSGTYYYGTRESHALDYWGQGTLVTVSS VL: DIQMTQSPSSVSASVGDRVTITCRASDNVYSNLAWYQQKPGKAPKLLIYGAISLADGVPSRFSGSGSGTDFTLTISSLQPEDFATYYCQHFWGNPYTFGQGTKLEIK	36.2 nM	6.02 nM	–	–	–	–	–	–
anti-IL-18BP antibody variant BP-04.03 (antibody, V domains shown) VH: QVQLVQSGAEVKKPGASVKVSCKASGYTFTDYDMHWVRQAPGQGLEWMGIISTYYGDVSYAQKFQGRVTMTRDKSTSTVYMELSSLRSENTAVYYCARSGTYYYGTREQHALDYWGQGTLVTVSS VL: DIQMTQSPSSVSASVGDRVTITCRASDNVYSNLAWYQQKPGKAPKLLIYGAISLADGVPSRFSGSGSGTDFTLTISSLQPEDFATYYCQHFWGNPYTFGQGTKLEIK	10.5 nM	0.881 nM	1.9 nM	0.00091 s⁻¹	470000 M⁻¹ s⁻¹	3.1 nM	0.0013 s⁻¹	420000 M⁻¹ s⁻¹
anti-IL-18BP antibody variant BP-04.07 (antibody, V domains shown) VH: QVQLVQSGAEVKKPGASVKVSCKASGYTFTDYDMHWVRQAPGQGLEWMGIISTYYGVVSYAQKKQGRVTMTRDKSTSTVYMELSSLRSEDTAVYYCARSGTYNYGTRESHALDYWGQGTLVTVSS VL: DIQMTQSPSSVSASVGDRVTITCRASDNVYSNLAWYQQKPGKAPKLLIYGAISLADGVPSRFSGSGSGTDFTLTISSLQPEDFATYYCQHFWGNPYTFGQGTKLEIK	4.3 nM	51.9 nM	1.9 nM	0.00068 s⁻¹	350000 M⁻¹ s⁻¹	2.4 nM	0.00076 s⁻¹	320000 M⁻¹ s⁻¹
anti-IL-18BP antibody variant BP-04.09 (antibody, V domains shown) VH: QVQLVQSGAEVKKPGASVKVSCKASGYTFTDYDMHWVRQAPGQGLEWMGIYSTYYGVVSYAQKFQGRVTMTRDKSTSTVYMELSSLRSEDTAVYYCARSGTYYYGTRESHAFDYWGQGTLVTVSS VL: DIQMTQSPSSVSASVGDRVTITCRASDNVYSNLAWYQQKPGKAPKLLIYGAISLADGVPSRFSGSGSGTDFTLTISSLQPEDFATYYCQHFWGNPYTFGQGTKLEIK	3.74 nM	2.04 nM	0.52 nM	0.00028 s⁻¹	530000 M⁻¹ s⁻¹	1.3 nM	0.0006 s⁻¹	450000 M⁻¹ s⁻¹
anti-IL-18BP antibody variant BP-04.05 (antibody, V domains shown) VH: QVQLVQSGAEVKKPGASVKVSCKASGYTFTDYDMHWVRQAPGQGLEWMGIISTYYGVVSYAQKKQGRVTMTRDKSTSTVYMELSSLRSEDTAVYYCARSGTYYYGTRESHAFDYWGQGTLVTVSS VL: DIQMTQSPSSVSASVGDRVTITCRASDNVYSNLAWYQQKPGKAPKLLIYGAISLADGVPSRFSGSGSGTDFTLTISSLQPEDFATYYCQHFWGNPYTFGQGTKLEIK	3.18 nM	4.92 nM	0.67 nM	0.00034 s⁻¹	510000 M⁻¹ s⁻¹	0.83 nM	0.00038 s⁻¹	460000 M⁻¹ s⁻¹
anti-IL-18BP antibody variant BP-04.08 (antibody, V domains shown) VH: QVQLVQSGAEVKKPGASVKVSCKASGYTFTDYDMHWVRQAPGQGLEWMGIYSTYYGDVSYAQKKQGRVTMTRDKSTSTVYMELSSLRSEDTAVYYCARSGTYNYGTRESHALDYWGQGTLVTVSS VL: DIQMTQSPSSVSASVGDRVTITCRASDNVYSNLAWYQQKPGKAPKLLIYGAISLADGVPSRFSGSGSGTDFTLTISSLQPEDFATYYCQHFWGNPYTFGQGTKLEIK	174 nM	94.1 nM	16 nM	0.0035 s⁻¹	210000 M⁻¹ s⁻¹	56 nM	0.014 s⁻¹	260000 M⁻¹ s⁻¹
anti-IL-18BP antibody variant BP-04.15 (antibody, V domains shown) VH: QVQLVQSGAEVKKPGASVKVSCKASGYTFTDYDMHWVRQAPGQGLEWMGIISTYYGDVSYAQKFQGRVTMTRDKSTSTVYMELSSLRSEDTAVYYCARSGTYNYGTRESHPLDYWGQGTLVTVSS VL: DIQMTQSPSSVSASVGDRVTITCRASDNVYSNLAWYQQKPGKAPKLLIYGAISLADGVPSRFSGSGSGTDFTLTISSLQPEDFATYYCQHFWGNPYTFGQGTKLEIK	12.3 nM	43.1 nM	12 nM	0.0028 s⁻¹	240000 M⁻¹ s⁻¹	20 nM	0.004 s⁻¹	200000 M⁻¹ s⁻¹
